Assay [1] has as its target p62 (Homo sapiens (Human)), Q13501. Nature of the assay: X-peptide pull down of in vitro transcribed and translated p62, Western blot. (In general: Immunoblotting shows a protein as a band on a membrane.)
In assay [2] the target is p62-D3-GST, Q13501.
Assay [3] has as its target p62-D3-GST, Q13501. The assay can be described thus: SPR (Biacore), legend of FIG. 6.
For assay [4], the target named is p62-D3-GST, Q13501. The source holds these as a separate data set.

Here are results for 2 molecules from patent publication US20180243244A1.

Where two headings read alike, the source gives them in different places. No end group written: not given here.

In the case of RIFSTIEGRTYK (not fully specified) [R11 peptide (biotin-labeled X-peptide with N-terminal Arg)], in assay [1], the efficiency of precipitating p62 is > 40%. The same molecule yielded a fold binding force against N-recognins containing a URB box with p62-D3-GST, Q13501 [2] of 50 times. In addition, in the assay with p62-D3-GST, Q13501 [3], the Kd stood at 40 nM. In the assay with p62-D3-GST, Q13501 [4], the Kd stood at 44 nM, the koff was found to be 0.0005 s⁻¹ and the association rate constant (kon) stood at 12300 M⁻¹ s⁻¹.

As to FIFSTIEGRTY (not fully specified) [F11 peptide (biotin-labeled X-peptide with N-terminal Phe)], in assay [1], the efficiency of precipitating p62 is 5%. Moreover, in the assay with p62-D3-GST, Q13501 [2], the Kd was 3400 nM. In the assay with p62-D3-GST, Q13501 [4], this molecule showed a Kd of 3440 nM, a koff of 0.0019 s⁻¹ and a kon of 550 M⁻¹ s⁻¹.

By Kd is commonly meant the concentration at which binding is half-saturated. Broadly, the koff is the first-order rate constant of dissociation. A higher koff goes with a short-lived complex. As a reminder, the kon is a measure of how fast the partners come together.
